Three molecules from US20250353921A1 (ASTRIA THERAPEUTICS, published 2025) can be followed below.

“And” between values parts separate entries of the source, which are not always exact repeats. Equal values may be shown once.

For assay [1], the target named is T1, Human OX40 (Acro Biosystems, catalog NO: OXO-H5224) protein (human, UniProt P43489 29-216).
T1 construct: Bought protein; also called recombinant human OX40 receptor; recombinant human OX40 protein
T1 sequence: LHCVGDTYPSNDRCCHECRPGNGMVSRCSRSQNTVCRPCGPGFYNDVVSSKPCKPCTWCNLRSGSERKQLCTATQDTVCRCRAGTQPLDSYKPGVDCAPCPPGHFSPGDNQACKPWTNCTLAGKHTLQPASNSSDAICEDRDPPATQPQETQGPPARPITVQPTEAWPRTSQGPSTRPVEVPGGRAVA
The assay is described as follows: SPR Biacore 8K+.

Assay [2] deals with T2, human OX40 (TNFRSF4, CD134) on cells (human, UniProt P43489 29-277).
T2 construct: also called OX40 on HPB-ALL cells; Jurkat-NFκB-OX40 cells
T2 sequence: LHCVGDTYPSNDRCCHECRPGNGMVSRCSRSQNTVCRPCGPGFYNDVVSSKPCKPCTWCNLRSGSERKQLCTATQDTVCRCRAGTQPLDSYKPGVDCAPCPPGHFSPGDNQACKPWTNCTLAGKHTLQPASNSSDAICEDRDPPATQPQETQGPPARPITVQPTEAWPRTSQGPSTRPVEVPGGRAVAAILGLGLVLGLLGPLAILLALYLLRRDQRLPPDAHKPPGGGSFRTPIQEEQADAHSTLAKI
The assay is described as follows: flow cytometry on Jurkat-NF-κB-OX40 cells, detection with PE anti-human IgG Fc, occupancy in % of the saturating dose; in the presence of 5 µg/ml OX40L; time point not stated on the sheet.

In assay [3] the target is T2, human OX40 (TNFRSF4, CD134) on cells. The assay is described as follows: cell-based or functional assay.
Assay [4] has the same target. The assay is described as follows: cell-based or functional assay. The source holds these as a separate data set.
Assay [5] shares this target. The assay is described as follows: cell-based or functional assay. This is another data set of the same source.
The target of a further assay is T3, human OX40-CRD-avi-his (human, UniProt P43489 29-170, limits assumed).
T3 construct: Only the CRD region of the ECD was used
T3 sequence: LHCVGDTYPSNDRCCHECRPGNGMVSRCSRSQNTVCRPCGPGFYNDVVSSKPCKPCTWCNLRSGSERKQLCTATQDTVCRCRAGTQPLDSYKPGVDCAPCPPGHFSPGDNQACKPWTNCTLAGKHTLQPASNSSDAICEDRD
The assay is described as follows: SPR Biacore T200, IgG captured by anti-human antibody, antigen as analyte, 1:1 Langmuir.

Another assay addresses T4, cynomolgus OX40-ECD-his (cynomolgus).
T4 construct: extracellular domain; also called Cyno OX40
The assay is described as above.

In assay [6] the target is T2, human OX40 (TNFRSF4, CD134) on cells. The assay is described as follows: cell-based or functional assay. This is another data set of the same source.
Assay [7] addresses T5, Human FcRn protein (Acro Biosystems, catalog NO: FCN-H52W7) (human, UniProt P55899 24-297; P61769 21-119).
T5 construct: also called huFcRn
The assay is described as follows: SPR Biacore 8K+, antibody immobilised, FcRn analyte, pH 6.0; pH 6.0.

For assay [8], the target named is T2, human OX40 (TNFRSF4, CD134) on cells. The assay is described as follows: cell-based or functional assay. The source holds these as a separate data set.
Assay [9] shares this target. The assay is described as follows: cell-based or functional assay. The source holds these as a separate data set.
Assay [10] shares this target. The assay is described as follows: flow cytometry on Jurkat-NFκB (OX40) cells, detection with anti-human IgG Fc-AF647.
The target is the same in assay [11]. The assay is described as follows: cell-based or functional assay. The source holds these as a separate data set.
Assay [12] shares this target. The assay is described as follows: cell-based or functional assay. The source holds these as a separate data set.
Another assay addresses T6, mouse (mo) OX40 protein (mouse, UniProt P47741 20-211).
T6 construct: also called Mouse OX40
T6 sequence (looked up): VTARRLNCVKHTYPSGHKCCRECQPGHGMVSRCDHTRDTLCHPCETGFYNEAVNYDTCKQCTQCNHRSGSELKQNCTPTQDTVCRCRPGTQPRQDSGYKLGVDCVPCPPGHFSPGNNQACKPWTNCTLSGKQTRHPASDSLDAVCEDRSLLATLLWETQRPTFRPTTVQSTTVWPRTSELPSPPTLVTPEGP
The assay is described as follows: SPR single cycle kinetics, MAB10 captured.

Another assay concerns the target T7, rabbit (rb) OX40 protein (rabbit).
T7 construct: also called Rabbit OX40
The assay is described as follows: SPR Biacore 8K+, single cycle kinetics, MAB10 captured by anti-human Fc, OX40 analyte.

For assay [13], the target named is T8, Human (hu) OX40 protein (Example 5 cross reactivity) (human, UniProt P43489 29-216, limits assumed).
T8 construct: whole entry named
T8 sequence: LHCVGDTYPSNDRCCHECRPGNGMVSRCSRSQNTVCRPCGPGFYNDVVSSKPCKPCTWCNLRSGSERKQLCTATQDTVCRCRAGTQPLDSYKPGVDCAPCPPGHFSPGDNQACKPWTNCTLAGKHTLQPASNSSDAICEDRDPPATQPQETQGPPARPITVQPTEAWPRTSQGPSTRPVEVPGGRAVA
The assay is described as above.

Assay [14] has as its target cynomolgus monkey (cy) OX40 protein (Example 5) (cynomolgus monkey). The assay is described as above.

T5 sequence (P55899 24-297 limits assumed, chain 1 of 2): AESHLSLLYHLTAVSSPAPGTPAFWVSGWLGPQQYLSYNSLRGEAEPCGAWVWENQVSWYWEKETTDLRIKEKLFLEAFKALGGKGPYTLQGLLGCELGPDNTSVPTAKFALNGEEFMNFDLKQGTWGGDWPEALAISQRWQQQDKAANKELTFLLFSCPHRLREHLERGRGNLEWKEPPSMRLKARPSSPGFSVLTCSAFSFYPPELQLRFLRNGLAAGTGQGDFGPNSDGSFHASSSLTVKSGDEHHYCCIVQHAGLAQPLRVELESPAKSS
T5 sequence (P61769 21-119 limits assumed, chain 2 of 2): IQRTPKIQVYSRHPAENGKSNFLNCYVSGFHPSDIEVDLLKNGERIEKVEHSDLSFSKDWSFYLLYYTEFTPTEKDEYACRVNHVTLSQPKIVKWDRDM

B1: MAB1 IgG1 (antibody)
heavy: not shown
light: EIVLTQSPATLSLSPGERATLSCRASSSVSYMHWYQQKPGQAPRPWIYATSNRATGIPARFSGSGSGTDYTLTISSLEPEDFAVYYCQQFGAWPWTFGQGTKVEIKRTVAAPSVFIFPPSDEQLKSGTASVVCLLNNFYPREAKVQWKVDNALQSGNSQESVTEQDSKDSTYSLSSTLTLSKADYEKHKVYACEVTHQGLSSPVTKSFNRGEC
notes: Human IgG1, kappa
For B1, the “fold increase in binding affinity against GBR830” value in assay [1] came out at 8 fold. In addition, in assay [2], the “EC50 (read off the curve)” value was approximately 0.4 nM. Moreover, in assay [3], the “ADCC EC50, activated T cells” value is 0.026 nM and 0.004 ug/ml; the “Fold Change to GBR 830, ADCC EC50, activated T cells” value is 3.25 fold. Further, in assay [4], the “ADCC EC50, regulatory T cells (LDH release)” value (shortened to “ADCC EC50 … (LDH release)”) was found to be 0.28 nM and the “Fold diff to MAB10, ADCC EC50, regulatory T cells” value stood at 8.25 fold. Besides, in assay [5], the “ADCC EC50, in vitro differentiated Tregs” value was 0.089 nM and 0.015 µg/mL; the “Fold Change to GBR 830, ADCC EC50, Tregs” value was 74 fold. In the assay with human OX40-CRD-avi-his, this molecule displayed a Kd of 6 nM, a koff of 0.00163 s⁻¹ and an on-rate constant (kon) of 274000 M⁻¹ s⁻¹. Moreover, in the assay with cynomolgus OX40-ECD-his, binding was characterised by a dissociation constant (Kd) of 557 nM, the koff was 0.0405 s⁻¹ and the on-rate constant (kon) came out at 72700 M⁻¹ s⁻¹. Moreover, in assay [6], the “Fold diff to MAB10, maximum ADCC, regulatory T cells” value is 2.27 fold and the “Maximum killing (%), ADCC, regulatory T cells” value worked out at 61.9%. This molecule returned a Kd in assay [7] of 102 nM. Also, in assay [8], the “Fold diff to MAB10, maximum ADCC, activated T cells” value worked out at 1.31 fold and the “Maximum killing (%), ADCC, activated T cells” value came out at 45.6%. In addition, the “fold decrease in ADCC of activated T cells against KHK4083” value in [9] was 3 fold. Besides, the “EC50 (read off the curve)” value in assay [10] is approximately 0.09 µg/mL. Also, in assay [11], the “EC50, inhibition of T cell proliferation” value is 0.17 nM and 0.24 ug/ml; the “Fold change to GBR 830, proliferation EC50” value amounted to 33 fold. For the same molecule, the “average proliferation index (Av), coated T cell agonism assay” value in assay [12] was found to be 0.97.

B2: MAB10 (antibody, human IgG1, kappa)
heavy: QVTLKESGPALVKPTQTLTLTCSFSGFSLSTSGMGVGWIRQPPGKALEWIAHIWWDDDKYYNTALKTRLTISKDTSKNQVVLTMTNMDPVDTATYYCARIDWDGFAYWGQGTLVTVSSASTKGPSVFPLAPSSKSTSGGTAALGCLVKDYFPEPVTVSWNSGALTSGVHTFPAVLQSSGLYSLSSVVTVPSSSLGTQTYICNVNHKPSNTKVDKKVEPKSCDKTHTCPPCPAPELLGGPSVFLFPPKPKDTLYITREPEVTCVVVDVSHEDPEVKFNWYVDGVEVHNAKTKPREEQYNSTYRVVSVLTVLHQDWLNGKEYKCKVSNKALPAPIEKTISKAKGQPREPQVYTLPPSRDELTKNQVSLTCLVKGFYPSDIAVEWESNGQPENNYKTTPPVLDSDGSFFLYSKLTVDKSRWQQGNVFSCSVMHEALHNHYTQKSLSLSPGK
light: EIVLTQSPATLSLSPGERATLSCRASSSVSYMHWYQQKPGQAPRPWIYATSNRATGIPARFSGSGSGTDYTLTISSLEPEDFAVYYCQQFGAWPWTFGQGTKVEIKRTVAAPSVFIFPPSDEQLKSGTASVVCLLNNFYPREAKVQWKVDNALQSGNSQESVTEQDSKDSTYSLSSTLTLSKADYEKHKVYACEVTHQGLSSPVTKSFNRGEC
notes: MAB1 with M252Y, S254T and T256E (EU numbering) in the IgG1 Fc; also called MAB1 Heavy Chain + YTE
As for B2, in [1], the “fold increase in binding affinity against GBR830” value was 8 fold. In addition, in assay [2], the “EC50 (read off the curve)” value was approximately 0.7 nM. Also, the “ADCC EC50 … (LDH release)” value in assay [4] was found to be 2.31 nM. Moreover, the binding result with mouse (mo) OX40 protein is on record as “no binding”. In addition, in assay [6], the “Maximum killing (%), ADCC, regulatory T cells” value came out at 27.3%. In assay [7], this molecule yielded a Kd of 11.5 nM. The “Maximum killing (%), ADCC, activated T cells” value in assay [8] worked out at 34.9%. Also, in [9], the “EC50 (inhibition) of NFκB signaling, Jurkat-NFκB-OX40 cells, 0.07 µg/mL OX40L” value turned out to be 0.79 nM and the “EC50 (inhibition) of NFκB signaling, Jurkat-NFκB-OX40 cells, 5 µg/mL OX40L” value amounted to 4.59 nM. In the assay with rabbit (rb) OX40 protein, this molecule registered a Kd of 3300 nM, a koff of 0.03 s⁻¹ and a kon of 9000 M⁻¹ s⁻¹. In assay [13], binding was put at a Kd of 6.7 nM, the koff amounted to 0.0021 s⁻¹ and the kon turned out to be 300000 M⁻¹ s⁻¹. Besides, in assay [14], the dissociation constant (Kd) was found to be 268 nM, the koff was 0.052 s⁻¹ and the kon came out at 200000 M⁻¹ s⁻¹.

B3: GBR 830 (telazorlimab) (antibody, human IgG1, kappa)
heavy: not shown
light: EIVLTQSPATLSLSPGERATLSCRASSSVSYMHWYQQKPGQAPRPWIYATSNRATGIPARFSGSGSGTDYTLTISSLEPEDFAVYYCQQWSSNPWTFGQGTKVEIKRTVAAPSVFIFPPSDEQLKSGTASVVCLLNNFYPREAKVQWKVDNALQSGNSQESVTEQDSKDSTYSLSSTLTLSKADYEKHKVYACEVTHQGLSSPVTKSFNRGEC
notes: IgG1; also called Antibody 830; ISB830
Turning to B3, the “ADCC EC50, activated T cells” value in assay [3] was 0.078 nM and 0.13 ug/ml. Besides, in [4], the “ADCC EC50 … (LDH release)” value worked out at 2.25 nM and the “Fold diff to MAB10, ADCC EC50, regulatory T cells” value was 1.03 fold. Further, the “ADCC EC50, in vitro differentiated Tregs” value in assay [5] is 0.833 nM and 0.121 µg/mL. In the assay with human OX40-CRD-avi-his, this molecule had a Kd of 80.4 nM, a koff of 0.00654 s⁻¹ and a kon of 81300 M⁻¹ s⁻¹. In the assay with cynomolgus OX40-ECD-his, this molecule showed a dissociation constant (Kd) of 3040 nM. Moreover, in assay [6], the “Fold diff to MAB10, maximum ADCC, regulatory T cells” value is 1.61 fold and the “Maximum killing (%), ADCC, regulatory T cells” value was determined as 44.1%. The same molecule came in with a Kd in assay [7] of 112 nM. In addition, in [8], the “Fold diff to MAB10, maximum ADCC, activated T cells” value came to 1.14 fold and the “Maximum killing (%), ADCC, activated T cells” value turned out to be 39.6%. Also, the “EC50 (read off the curve)” value in assay [10] is approximately 0.3 µg/mL. Besides, in [11], the “EC50, inhibition of T cell proliferation” value is 5.67 nM and 0.833 ug/ml. Moreover, the “average proliferation index (Av), coated T cell agonism assay” value in assay [12] worked out at 0.98.
